Residue numbers refer to the chain shown, from its start.
T1: MERS Receptor Binding Domain (RBD) protein (MERS virus, UniProt K9N5Q8 367-606)
T1 construct: also called Middle East Respiratory Syndrome (MERS) virus
T1 sequence: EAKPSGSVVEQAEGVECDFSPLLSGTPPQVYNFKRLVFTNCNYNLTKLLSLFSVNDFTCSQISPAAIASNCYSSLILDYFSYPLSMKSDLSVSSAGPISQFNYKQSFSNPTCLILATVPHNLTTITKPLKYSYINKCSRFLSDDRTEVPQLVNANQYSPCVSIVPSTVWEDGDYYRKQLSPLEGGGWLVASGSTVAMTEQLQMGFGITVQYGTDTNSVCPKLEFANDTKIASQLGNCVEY

B1: COVID19_P22_F04 (scFv, V domains shown)
VH: QVQLVQSGAEVKKPGSSVKVSCKASGGGFITYWIGWVRQAPGQGLEWMGIIYPGDGEARYSQKFQGRVTITADESTSTAYMELSSLRSEDTAVYYCAGGSGISTPMDVWGQGTLVTVSS
VL: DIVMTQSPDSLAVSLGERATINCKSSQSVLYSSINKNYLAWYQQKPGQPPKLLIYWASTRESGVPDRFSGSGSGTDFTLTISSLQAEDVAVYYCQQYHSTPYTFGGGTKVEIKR
B2: COVID19_P10_C05 (scFv, V domains shown)
VH: B1 VH with G28T, G99S, S100G
VL: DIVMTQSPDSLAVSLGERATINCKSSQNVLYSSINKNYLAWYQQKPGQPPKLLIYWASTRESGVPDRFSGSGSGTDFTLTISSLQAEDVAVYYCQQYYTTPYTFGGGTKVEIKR
B3: COVID19_P21_E12 (scFv, V domains shown)
VH: QVQLVQSGAEVKKPGSSVKVSCKASGGTFISYAISWVRQAPGQGLEWMGGIIPTLGTYNYAQKFQGRVTITADESTSTAYMELSSLRSEDTAVYYCAGSWGISTPMDVWGQGTLVTVSS
VL: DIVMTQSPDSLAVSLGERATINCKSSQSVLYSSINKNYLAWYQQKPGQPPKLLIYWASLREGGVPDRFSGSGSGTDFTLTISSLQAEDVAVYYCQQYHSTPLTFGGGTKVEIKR
notes: also called COVID19_P21_El2
B4: COVID19_P21_A08 (scFv, V domains shown)
VH: B1 VH with G28T, I50W, Y52N, G54N, D55S, E57G, A58T, R59N, S61A
VL: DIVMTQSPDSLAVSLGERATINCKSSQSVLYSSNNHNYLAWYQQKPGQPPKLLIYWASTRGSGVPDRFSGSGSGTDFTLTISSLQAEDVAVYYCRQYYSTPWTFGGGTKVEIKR
B5: COVID19_P09_C05 (scFv, V domains shown)
VH: QVQLVQSGAEVKKPGSSVKVSCKASGYSFSDYYIHWVRQAPGQGLEWMGWIDPNSGGTNYAQKFQGRVTITADESTSTAYMELSSLRSEDTAVYYCAGGSGISTPMDVWGQGTLVTVSS
VL: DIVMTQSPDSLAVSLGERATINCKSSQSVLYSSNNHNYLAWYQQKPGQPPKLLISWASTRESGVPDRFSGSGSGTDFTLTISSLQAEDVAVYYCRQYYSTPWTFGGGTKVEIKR
B6: COVID19_P21_B01 (scFv, V domains shown)
VH: B5 VH with S28T, D31T, Y33W, H35G
VL: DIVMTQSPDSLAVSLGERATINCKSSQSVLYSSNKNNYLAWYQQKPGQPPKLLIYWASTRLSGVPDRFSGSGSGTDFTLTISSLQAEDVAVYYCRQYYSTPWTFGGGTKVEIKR
B7: COVID19_P22_H10 (scFv, V domains shown)
VH: B5 VH with Y27G, S28G, D31T, Y33W, H35G, M48V, D52N, G57A, N59K
VL: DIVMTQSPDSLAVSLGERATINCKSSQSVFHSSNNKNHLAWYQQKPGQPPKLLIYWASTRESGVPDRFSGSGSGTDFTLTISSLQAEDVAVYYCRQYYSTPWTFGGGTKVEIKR
B8: COVID19_P21_H03 (scFv, V domains shown)
VH: QVQLVQSGAEVKKPGSSVKVSCKASGYTFTNYGINWVRQAPGQGLEWMGWMNPYSGNTGYAQKFQGRVTITADESTSTAYMELSSLRSEDTAVYYCAVLSGISTPMDVWGQGTLVTVSS
VL: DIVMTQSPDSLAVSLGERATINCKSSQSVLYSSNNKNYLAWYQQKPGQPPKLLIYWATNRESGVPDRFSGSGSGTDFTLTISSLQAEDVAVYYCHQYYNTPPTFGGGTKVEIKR
B9: COVID19_P21_B02 (scFv, V domains shown)
VH: B8 VH with Y54N, V98A, L99V
VL: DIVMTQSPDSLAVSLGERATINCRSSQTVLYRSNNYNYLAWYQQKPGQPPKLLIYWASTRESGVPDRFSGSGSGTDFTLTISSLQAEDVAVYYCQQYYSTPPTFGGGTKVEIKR
B10: COVID19_P21_E04 (scFv, V domains shown)
VH: B8 VH with V37M, Y54N, V98G, L99G
VL: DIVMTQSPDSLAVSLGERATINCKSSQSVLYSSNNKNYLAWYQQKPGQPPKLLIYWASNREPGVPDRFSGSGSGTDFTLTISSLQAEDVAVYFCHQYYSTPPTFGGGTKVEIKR
B11: COVID19_P09_B10 (scFv, V domains shown)
VH: B5 VH with S30T, Y33H, G49A, W50M, D52V, N54R, S55G, G57S, N59T
VL: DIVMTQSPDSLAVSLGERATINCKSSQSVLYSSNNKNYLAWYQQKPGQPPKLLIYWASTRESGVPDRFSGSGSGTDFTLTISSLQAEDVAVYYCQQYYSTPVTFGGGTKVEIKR
B12: COVID19_P10_A09 (scFv, V domains shown)
VH: B5 VH with S28T, S30T, I51M, D52N, G57N, N59G, K63N, P105A, M106W
VL: DIVMTQSPDSLAVSLGERATIRCTSSLSLQDRSNNKNYLTWYQQKPGQPPKLLIYWASTRESGVPDRFSGSGSGTDFTLTISSLQAEDVAVYYCQQHYSAPLTFGGGTKVEIKR
B13: COVID19_P21_B09 (scFv, V domains shown)
VH: B1 VH with G27Y, G28T, I30T, T31G, Y32H, W33Y, I34M, G35H, G56S
VL: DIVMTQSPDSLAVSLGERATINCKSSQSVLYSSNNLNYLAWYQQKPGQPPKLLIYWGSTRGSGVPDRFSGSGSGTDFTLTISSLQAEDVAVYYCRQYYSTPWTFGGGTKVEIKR

Tests used:
[1] = molecular target: SARS-CoV-2 Receptor Binding Domain (RBD) protein (SARS-CoV-2, UniProt P0DTC2 319-541)
[2] = molecular target: T2, SARS-CoV-1 Receptor Binding Domain (RBD) protein (SARS-CoV-1, UniProt P59594 306-527); assay: SPR; clone listed as COV2 only at the 21st table, row 4, column 3
T2 construct: also called SARS1

[3] = molecular target: T1, MERS Receptor Binding Domain (RBD) …; assay: as above
[4] = molecular target: T2, SARS-CoV-1 Receptor Binding Domain …; assay: SPR; clone listed as COV2 only at the 21st table, row 14, column 3
[5] = molecular target: T1, MERS Receptor Binding Domain (RBD) …; assay: as above
[6] = molecular target: T2, SARS-CoV-1 Receptor Binding Domain …; assay: SPR; clone listed as COV2 only at the 21st table, row 13, column 3
[7] = molecular target: T1, MERS Receptor Binding Domain (RBD) …; assay: as above
[8] = molecular target: T2, SARS-CoV-1 Receptor Binding Domain …; assay: SPR; clone listed as COV2 only at the 21st table, row 15, column 3
[9] = molecular target: T1, MERS Receptor Binding Domain (RBD) …; assay: as above
[10] = molecular target: T2, SARS-CoV-1 Receptor Binding Domain …; assay: SPR; clone listed as COV2 only at the 21st table, row 57, column 3
[11] = molecular target: T1, MERS Receptor Binding Domain (RBD) …; assay: as above
[12] = molecular target: T2, SARS-CoV-1 Receptor Binding Domain …; assay: SPR; clone listed as COV2 only at the 21st table, row 59, column 3
[13] = molecular target: T1, MERS Receptor Binding Domain (RBD) …; assay: as above
[14] = molecular target: T2, SARS-CoV-1 Receptor Binding Domain …; assay: SPR; clone listed as COV2 only at the 21st table, row 12, column 3
[15] = molecular target: T1, MERS Receptor Binding Domain (RBD) …; assay: as above
[16] = molecular target: T2, SARS-CoV-1 Receptor Binding Domain …; assay: SPR; clone listed as COV2 only at the 21st table, row 65, column 3
[17] = molecular target: T1, MERS Receptor Binding Domain (RBD) …; assay: as above
[18] = molecular target: T2, SARS-CoV-1 Receptor Binding Domain …; assay: SPR; clone listed as COV2 only at the 21st table, row 63, column 3
[19] = molecular target: T1, MERS Receptor Binding Domain (RBD) …; assay: as above
[20] = molecular target: T2, SARS-CoV-1 Receptor Binding Domain …; assay: SPR; clone listed as COV2 only at the 21st table, row 64, column 3
[21] = molecular target: T1, MERS Receptor Binding Domain (RBD) …; assay: as above
[22] = molecular target: T2, SARS-CoV-1 Receptor Binding Domain …; assay: SPR; clone listed as COV2 only at the 21st table, row 58, column 3
[23] = molecular target: T1, MERS Receptor Binding Domain (RBD) …; assay: as above
[24] = molecular target: T2, SARS-CoV-1 Receptor Binding Domain …; assay: SPR; clone listed as COV2 only at the 21st table, row 60, column 3
[25] = molecular target: T1, MERS Receptor Binding Domain (RBD) …; assay: as above
[26] = molecular target: T2, SARS-CoV-1 Receptor Binding Domain …; assay: SPR; clone listed as COV2 only at the 21st table, row 61, column 3
[27] = molecular target: T1, MERS Receptor Binding Domain (RBD) …; assay: as above

Row | Binder | Kd [1] | koff [1] | kon [1] | further results
1 | B1 | 30.6 nM | 0.0085 s⁻¹ | 280000 M⁻¹ s⁻¹ | binding result [2]: no binding (tested: up to 300 nM); binding result [3]: no binding (tested: up to 300 nM)
2 | B2 | 33.8 nM | 0.0156 s⁻¹ | 462000 M⁻¹ s⁻¹ | binding result [4]: no binding (tested: up to 300 nM); binding result [5]: no binding (tested: up to 300 nM)
3 | B3 | 8.82 nM | 0.000586 s⁻¹ | 66500 M⁻¹ s⁻¹ | binding result [6]: no binding (tested: up to 300 nM); binding result [7]: no binding (tested: up to 300 nM)
4 | B4 | 13.3 nM | 0.000496 s⁻¹ | 37300 M⁻¹ s⁻¹ | binding result [8]: no binding (tested: up to 300 nM); binding result [9]: no binding (tested: up to 300 nM)
5 | B5 | 1.18 nM | 0.000185 s⁻¹ | 157000 M⁻¹ s⁻¹ | binding result [10]: no binding (tested: up to 300 nM); binding result [11]: no binding (tested: up to 300 nM)
6 | B6 | 0.91 nM | 5.7e-05 s⁻¹ | 62400 M⁻¹ s⁻¹ | binding result [12]: no binding (tested: up to 300 nM); binding result [13]: no binding (tested: up to 300 nM)
7 | B7 | 7.59 nM | 0.00057 s⁻¹ | 75000 M⁻¹ s⁻¹ | binding result [14]: no binding (tested: up to 300 nM); binding result [15]: no binding (tested: up to 300 nM)
8 | B8 | 11.6 nM | 0.00113 s⁻¹ | 97200 M⁻¹ s⁻¹ | binding result [16]: no binding (tested: up to 300 nM); binding result [17]: no binding (tested: up to 300 nM)
9 | B9 | 45.5 nM | 0.0127 s⁻¹ | 278000 M⁻¹ s⁻¹ | binding result [18]: no binding (tested: up to 300 nM); binding result [19]: no binding (tested: up to 300 nM)
10 | B10 | 2.15 nM | 0.000588 s⁻¹ | 273000 M⁻¹ s⁻¹ | binding result [20]: no binding (tested: up to 300 nM); binding result [21]: no binding (tested: up to 300 nM)
11 | B11 | 39.7 nM | 0.00323 s⁻¹ | 81400 M⁻¹ s⁻¹ | binding result [22]: no binding (tested: up to 300 nM); binding result [23]: no binding (tested: up to 300 nM)
12 | B12 | 20.5 nM | 0.00112 s⁻¹ | 54800 M⁻¹ s⁻¹ | binding result [24]: no binding (tested: up to 300 nM); binding result [25]: no binding (tested: up to 300 nM)
13 | B13 | 3.71 nM | 0.000207 s⁻¹ | 55900 M⁻¹ s⁻¹ | binding result [26]: no binding (tested: up to 300 nM); binding result [27]: no binding (tested: up to 300 nM)

From patent US11034762 (CENTIVAX, dated 2021)
